The values below come from patent US20190225669A1 (ACCELERON PHARMA, published 2019).

For one test, the target named is T1, BMP15 (UniProt O95972 268-392).
T1 construct: also called GDF9b
T1 sequence (looked up): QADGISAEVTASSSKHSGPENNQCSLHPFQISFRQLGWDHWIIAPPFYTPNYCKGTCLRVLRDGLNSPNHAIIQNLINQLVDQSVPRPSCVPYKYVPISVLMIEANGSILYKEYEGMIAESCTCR
Kind of test: Biacore SPR. How it is done:
A Biacore™-based binding assay was used to compare ligand binding selectivity of the BMPRII-Fc:ALK2-Fc heterodimeric complex described above with that of BMPRII-Fc and ALK2-Fc homodimeric complexes. […] Ligands were injected and allowed to flow over the captured receptor protein.

The next test addresses T2, GDF6 (UniProt Q6KF10 336-455, limits assumed).
T2 construct: also called BMP13
T2 sequence (looked up): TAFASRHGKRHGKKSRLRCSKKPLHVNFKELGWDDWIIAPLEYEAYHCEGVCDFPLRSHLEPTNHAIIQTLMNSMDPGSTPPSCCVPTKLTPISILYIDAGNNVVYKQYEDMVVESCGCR
Kind of test: Biacore SPR. Here is the method: (§1) Ligands were injected and allowed to flow over the captured receptor protein.
(In general: Surface plasmon resonance follows binding to a sensor surface in real time, without labels.)

Test [1] deals with T3, BMP5 (UniProt P22003 317-454, limits assumed).
T3 sequence (looked up): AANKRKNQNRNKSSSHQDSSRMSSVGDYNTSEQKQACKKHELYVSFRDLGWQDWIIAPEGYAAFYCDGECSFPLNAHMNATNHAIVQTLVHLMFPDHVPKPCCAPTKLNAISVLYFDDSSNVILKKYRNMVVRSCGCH
The test can be described thus: Biacore SPR. How it is done:
as §1

In test [2] the target is T4, GDF11 (UniProt O95390 299-407).
T4 construct: also called BMP11
T4 sequence (looked up): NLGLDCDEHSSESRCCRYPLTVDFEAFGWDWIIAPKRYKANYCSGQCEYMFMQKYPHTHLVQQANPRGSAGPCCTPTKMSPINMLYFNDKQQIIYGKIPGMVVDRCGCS
The test can be described thus: Biacore SPR. How it is done: as §1

Test [3] has as its target T5, GDF3 (UniProt Q9NR23 251-364).
T5 sequence (looked up): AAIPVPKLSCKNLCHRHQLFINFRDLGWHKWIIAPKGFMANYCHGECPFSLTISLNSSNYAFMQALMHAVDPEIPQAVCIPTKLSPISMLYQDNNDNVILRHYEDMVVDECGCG
The test can be described thus: Biacore SPR. Here is the method: as §1

Test [4] concerns the target T6, GDF8 (UniProt O14793 267-375).
T6 construct: also called myostatin
T6 sequence (looked up): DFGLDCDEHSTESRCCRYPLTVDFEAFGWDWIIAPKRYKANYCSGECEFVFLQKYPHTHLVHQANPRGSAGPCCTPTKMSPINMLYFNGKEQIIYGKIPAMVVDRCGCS
Kind of test: Biacore SPR. Here is the method: as §1

The target of test [5] is T7, activin B (UniProt P09529 293-407).
T7 sequence (looked up): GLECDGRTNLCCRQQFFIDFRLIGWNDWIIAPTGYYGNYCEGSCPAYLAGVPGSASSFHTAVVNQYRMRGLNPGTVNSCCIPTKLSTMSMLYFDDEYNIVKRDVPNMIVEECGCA
Kind of test: Biacore SPR. How it is done: as §1

Test [6] concerns the target T8, activin A (UniProt P08476 311-426).
T8 sequence (looked up): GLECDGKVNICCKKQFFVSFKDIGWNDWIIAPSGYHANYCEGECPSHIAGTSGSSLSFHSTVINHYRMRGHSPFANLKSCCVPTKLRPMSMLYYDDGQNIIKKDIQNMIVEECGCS
Kind of test: Biacore SPR. Here is the method: as §1

The target in test [7] is T9, BMP10 (UniProt O95393 317-424).
T9 sequence (looked up): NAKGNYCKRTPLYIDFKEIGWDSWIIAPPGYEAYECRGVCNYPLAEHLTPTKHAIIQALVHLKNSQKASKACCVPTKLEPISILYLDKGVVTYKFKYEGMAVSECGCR
The test can be described thus: Biacore SPR. How it is done: as §1

The next test addresses T10, BMP9 (UniProt Q9UK05 320-429).
T10 construct: also called GDF2
T10 sequence (looked up): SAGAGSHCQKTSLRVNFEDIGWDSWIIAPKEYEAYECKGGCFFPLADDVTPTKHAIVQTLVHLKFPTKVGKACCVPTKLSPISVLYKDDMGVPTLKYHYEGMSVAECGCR
The test can be described thus: Biacore SPR; kinetics indeterminate (transient). Here is the method: as §1

Test [8] has as its target T3, BMP5. The test can be described thus: Biacore SPR. How it is done:
as §1
This is another data set of the same source.

For test [9], the target named is T4, GDF11. The test can be described thus: Biacore SPR. Here is the method: as §1
This is another data set of the same source.

The target of test [10] is T11, BMP6 (UniProt P22004 382-513, limits assumed).
T11 sequence (looked up): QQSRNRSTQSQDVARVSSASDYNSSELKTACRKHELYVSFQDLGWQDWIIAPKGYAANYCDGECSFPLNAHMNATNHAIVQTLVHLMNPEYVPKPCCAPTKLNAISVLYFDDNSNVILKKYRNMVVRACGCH
Kind of test: Biacore SPR. Here is the method:
as §1

The target in test [11] is T5, GDF3. Kind of test: Biacore SPR. How it is done: as §1
This is another data set of the same source.

In test [12] the target is T6, GDF8. The test can be described thus: Biacore SPR. Here is the method:
as §1
The source holds these as a separate data set.

Test [13] deals with T7, activin B. The test can be described thus: Biacore SPR. Here is the method: as §1
The source holds these as a separate data set.

Test [14] addresses T8, activin A. Kind of test: Biacore SPR. Here is the method:
as §1
This is another data set of the same source.

Test [15] has as its target T9, BMP10. Kind of test: Biacore SPR. Here is the method:
as §1
This is another data set of the same source.

In test [16] the target is T4, GDF11. Kind of test: Biacore SPR. How it is done:
as §1
This is another data set of the same source.

Test [17] deals with T11, BMP6. Kind of test: Biacore SPR. How it is done: as §1
The source holds these as a separate data set.

Test [18] concerns the target T5, GDF3. Kind of test: Biacore SPR. Here is the method: as §1
This is another data set of the same source.

For test [19], the target named is T6, GDF8. The test can be described thus: Biacore SPR. How it is done:
as §1
This is another data set of the same source.

Test [20] addresses T7, activin B. Kind of test: Biacore SPR. How it is done:
as §1
The source holds these as a separate data set.

Test [21] deals with T8, activin A. The test can be described thus: Biacore SPR. How it is done: as §1
This is another data set of the same source.

Test [22] concerns the target T9, BMP10. The test can be described thus: Biacore SPR. Here is the method: as §1
This is another data set of the same source.

Like-named read-outs stand apart in the source and are kept apart here. Some results are limits rather than exact numbers.

B1: ALK2-Fc homodimer (Fc fusion, UniProt Q04771 21-123, looked up, not shown: a dimerising Fc or GST)
chain: MEDEKPKVNPKLYMCVCEGLSCGNEDHCEGQQCFSSLSINDGFHVYQKGCFQVYEQGKMTCKTPPSPGQAVECCQGDWCNRNITAQLPTKGKSFPGTQNFHLE
notes: extracellular domain
Turning to B1, the binding result with BMP15, with GDF6, in the test with BMP5 [1], with GDF11 [2], with GDF3 [3] and in the test with GDF8 [4] was “no binding” in each case. The binding result in the test with activin B [5], with activin A [6] and with BMP10 [7] was “no binding” each time.

B2: ActRIIB-Fc:ALK7-Fc heterodimer (Fc fusion)
chain 1: GRGEAETRECIYYNANWELERTNQSGLERCEGEQDKRLHCYASWRNSSGTIELVKKGCWLDDFNCYDRQECVATEENPQVYFCCCEGNFCNERFTHLPEAGGPEVTYEPPPTAPTGGGTHTCPPCPAPELLGGPSVFLFPPKPKDTLMISRTPEVTCVVVDVSHEDPEVKFNWYVDGVEVHNAKTKPREEQYNSTYRVVSVLTVLHQDWLNGKEYKCKVSNKALPAPIEKTISKAKGQPREPQVYTLPPSRKEMTKNQVSLTCLVKGFYPSDIAVEWESNGQPENNYKTTPPVLKSDGSFFLYSKLTVDKSRWQQGNVFSCSVMHEALHNHYTQKSLSLSPGK
chain 2: GLKCVCLLCDSSNFTCQTEGACWASVMLTNGKEQVIKSCVSLPELNAQVFCHSSNNVTKTECCFTDFCNNITLHLPTASPNAPKLGPMETGGGTHTCPPCPAPELLGGPSVFLFPPKPKDTLMISRTPEVTCVVVDVSHEDPEVKFNWYVDGVEVHNAKTKPREEQYNSTYRVVSVLTVLHQDWLNGKEYKCKVSNKALPAPIEKTISKAKGQPREPQVYTLPPSREEMTKNQVSLTCLVKGFYPSDIAVEWESNGQPENNYDTTPPVLDSDGSFFLYSDLTVDKSRWQQGNVFSCSVMHEALHNHYTQKSLSLSPG
notes: C-terminal Lys optional; also called ActRIIB-Fc:ALK7 heterodimer
The Kd is the constant that tells how readily two partners part at equilibrium. One may read the koff as the rate constant with which the complex falls apart. The low end stands for a long-lived complex, the high end for a short-lived complex. What is called kon is a measure of how fast the partners come together. A higher kon goes with fast association. As to B2, the equilibrium dissociation constant (Kd) with BMP9 was greater than 1.4 nM; with BMP5 [8], 57 nM; in the test with GDF11 [9], 0.008 nM; with BMP6 [10] it was 5.3 nM; with GDF3 [11], 4.5 nM; in the test with GDF8 [12], 0.27 nM. Moreover, the equilibrium dissociation constant (Kd) with activin B [13] was found to be 0.017 nM; in the test with activin A [14], 0.043 nM; in the test with BMP10 [15] it was 0.19 nM. Further, the koff turned out to be 0.0085 s⁻¹ with BMP5 [8]; 0.00075 s⁻¹ in the test with GDF11 [9]; 0.0063 s⁻¹ with BMP6 [10]; 0.01 s⁻¹ in the test with GDF3 [11]; 0.001 s⁻¹ with GDF8 [12]; 0.0002 s⁻¹ with activin B [13]. Besides, the koff with activin A [14] turned out to be 0.0019 s⁻¹; with BMP10 [15], 0.0028 s⁻¹. For the same molecule, the kon is 150000 M⁻¹ s⁻¹ with BMP5 [8]; 9.5e+07 M⁻¹ s⁻¹ with GDF11 [9]; 1.2e+06 M⁻¹ s⁻¹ with BMP6 [10]; 2.3e+06 M⁻¹ s⁻¹ in the test with GDF3 [11]; 3.7e+06 M⁻¹ s⁻¹ in the test with GDF8 [12]; 1.2e+07 M⁻¹ s⁻¹ with activin B [13]. For the same molecule, the kon in the test with activin A [14] worked out at 4.4e+07 M⁻¹ s⁻¹; with BMP10 [15], 1.5e+07 M⁻¹ s⁻¹.

B3: ActRIIB-Fc:ALK5-Fc heterodimer (Fc fusion)
chain 1: B2 chain 1
chain 2: ALLPGATALQCFCHLCTKDNFTCVTDGLCFVSVTETTDKVIHNSMCIAEIDLIPRDRPFVCAPSSKTGSVTTTYCCNQDHCNKIELPTTVKSSPGLGPVETGGGTHTCPPCPAPELLGGPSVFLFPPKPKDTLMISRTPEVTCVVVDVSHEDPEVKFNWYVDGVEVHNAKTKPREEQYNSTYRVVSVLTVLHQDWLNGKEYKCKVSNKALPAPIEKTISKAKGQPREPQVYTLPPSREEMTKNQVSLTCLVKGFYPSDIAVEWESNGQPENNYDTTPPVLDSDGSFFLYSDLTVDKSRWQQGNVFSCSVMHEALHNHYTQKSLSLSPG
notes: C-terminal Lys optional; also called ActRIIB-Fc:ALK5-Fc heterodimeric complex
Take B3: the Kd was greater than 6.6 nM in the test with BMP9; 0.2 nM in the test with GDF11 [16]; 1.7 nM in the test with BMP6 [17]; 8.5 nM in the test with GDF3 [18]; 0.49 nM in the test with GDF8 [19]; 0.079 nM in the test with activin B [20]. Besides, the figures for the Kd in the test with activin A [21] and with BMP10 [22] were 0.046 nM and 0.15 nM, respectively. The koff was 0.00046 s⁻¹ with GDF11 [16]; 0.015 s⁻¹ with BMP6 [17]; 0.0097 s⁻¹ with GDF3 [18]; 0.00052 s⁻¹ in the test with GDF8 [19]; 0.00031 s⁻¹ in the test with activin B [20]; 0.0016 s⁻¹ in the test with activin A [21]. This molecule registered a koff in the test with BMP10 [22] of 0.0022 s⁻¹. The association rate constant (kon) with GDF11 [16] turned out to be 2.3e+06 M⁻¹ s⁻¹; with BMP6 [17] it was 9.3e+06 M⁻¹ s⁻¹; in the test with GDF3 [18], 1.1e+06 M⁻¹ s⁻¹; in the test with GDF8 [19], 1.1e+06 M⁻¹ s⁻¹; with activin B [20], 3.9e+06 M⁻¹ s⁻¹; with activin A [21] it was 3.6e+07 M⁻¹ s⁻¹. In the test with BMP10 [22], the kon came out at 2.3e+07 M⁻¹ s⁻¹.
